From publication PMC3230378 (The EMBO Journal, 2011)

T1: mouse NGL3_(LRR–Ig) (mouse, UniProt P0C192 39-455)
T1 sequence (looked up): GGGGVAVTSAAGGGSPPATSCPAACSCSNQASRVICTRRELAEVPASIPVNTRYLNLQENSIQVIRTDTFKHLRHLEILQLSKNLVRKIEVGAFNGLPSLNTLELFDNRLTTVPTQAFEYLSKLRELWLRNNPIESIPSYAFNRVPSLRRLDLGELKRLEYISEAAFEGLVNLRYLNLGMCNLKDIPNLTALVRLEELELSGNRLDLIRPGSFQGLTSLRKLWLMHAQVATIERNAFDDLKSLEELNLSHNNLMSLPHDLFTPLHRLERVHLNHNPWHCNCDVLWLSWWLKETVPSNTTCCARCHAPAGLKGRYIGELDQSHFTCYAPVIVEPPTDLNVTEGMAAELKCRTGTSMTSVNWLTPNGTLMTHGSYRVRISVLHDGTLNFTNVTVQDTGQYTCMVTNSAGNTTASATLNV


Experiments:
Assay in all cases: SPR
[1] = biological target: NGL1-r1 mutant (human NGL1_(LRR–Ig) with the loop I binding region of NGL2) (human) (UniProt Q9HCJ2)
[2] = biological target: mouse NGL3_(LRR–Ig) (mouse) (UniProt P0C192)
mouse NGL3_(LRR–Ig) = biological target: T1, mouse NGL3_(LRR–Ig)

| fold decrease of binding against WT NGL1 [1] [fold] | Kd [2] [µM] | Kd (mouse NGL3_(LRR–Ig)) [µM] | Molecule |
| --- | --- | --- | --- |
| > 10 | > 100 | – | human NetrinG1_(Lam–EGF1/4), wild type (domain or fragment) |
| – | – | > 100 | human NetrinG2_(Lam–EGF1), wild type (domain or fragment, UniProt Q96CW9 18-345, looked up) DYDICKSWVTTDEGPTWEFYACQPKVMRLKDYVKVKVEPSGITCGDPPERFCSHENPYLCSNECDASNPDLAHPPRLMFDKEEEGLATYWQSITWSRYPSPLEANITLSWNKTVELTDDVVMTFEYGRPTVMVLEKSLDNGRTWQPYQFYAEDCMEAFGMSARRARDMSSSSAHRVLCTEEYSRWAGSKKEKHVRFEVRDRFAIFAGPDLRNMDNLYTRLESAKGLKEFFTLTDLRMRLLRPALGGTYVQRENLYKYFYAISNIEVIGRCKCNLHANLCSMREGSLQCECEHNTTGPDCGKCKKNFRTRSWRAGSYLPLPHGSPNACA |
